From US20190127480A1 (Regeneron, published 2019)
Blank lines part the entries; values can stand above or below the binder they belong to.

Experiments:
[1] = molecular target: T1, human CD3 on CD3-expressing cells (Jurkat, human T cells) (human, UniProt P07766 23-207; P04234 22-171); assay: FACS on Jurkat cells
T1 construct: On cells CD3 stands within the T cell receptor complex (also gamma and zeta chains); also called human CD3 expressing Jurkat cells
Summary of the method: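 Jurkat (human CD3), cynomolgus T or PSMA-expressing cells (2×10⁵/well) incubated 30 min at 4° C with serially diluted bispecific antibodies, then 30 min with PE anti-human Fcγ F(ab′)₂. Single-cell gated flow cytometry; EC₅₀ from 4-parameter non-linear regression.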

[2] = molecular target: T2, human PSMA on PSMA-expressing cells (human, UniProt Q04609 1-750); assay: FACS on 22RV1 cells
T2 construct: Cell line is named under assay or readout in each row; also called B16F10.9/hPSMA; B16F10.9/PSMA
Procedure: Briefly, 2×10⁵ cells/well of human CD3-expressing Jurkat, cynomolgus T, or human PSMA-specific expressing cells were incubated with a serial dilution of bispecific antibodies for 30 min at 4° C. After incubation, cells were washed and a goat F(ab′)₂ anti-human Fcγ PE labeled secondary (Jackson Immunolabs) was added to the cells for an additional 30 min. Next, cells were washed, re-suspended in cold PBS+1% BSA and analyzed via flow cytometry on a BD FACS Canto II.
For FACS analysis, cells were gated by forward scatter height vs. forward scatter area for single events selection, followed by side and forward scatters. The EC₅₀ for cell binding titration was determined using Prism software. Values were calculated using 4-parameter non-linear regression analysis.

[3] = molecular target: human CD3 expressed on cells (Jurkat cells; human T-cells of PBMC) (human, UniProt P09693 23-182; P20963 22-164); assay: cell-based or functional assay
[4] = molecular target: T3, cynomolgus monkey CD3 expressed on monkey T-cells (PBMCs) (cynomolgus monkey, UniProt Q95LI5 22-198; Q95LI8 22-171); assay: FACS titration on monkey PBMCs, gated on CD2+CD4+ T cells
T3 construct: whole, on cells; Native CD3 on monkey T cells; gamma and zeta chains are also part of CD3 on cells; also called monkey PBMCs; mfPBMC
Procedure: FACS data was acquired using the following protocol: Cells at 2×10⁵ per well were incubated with serially diluted antibodies for 30 min on ice. Post incubation, cells were washed and secondary antibodies were added and incubated for an additional 30 minutes. After incubation, cells were washed, re-suspended in cold PBS containing 1% BSA and analyzed by flow cytometry. CD4+ monkey T cells were gated by side and forward scatters, and on the CD2+CD4+CD20− population. The EC₅₀s for cell binding titration were calculated using a 4-parameter non-linear regression analysis in GraphPad Prism.

[5] = molecular target: T1, human CD3 on CD3-expressing cells …; assay: FACS titration of Jurkat cells
[6] = molecular target: T4, cynomolgus CD3 on cynomolgus T cells (cynomolgus, UniProt Q95LI5 22-198; Q95LI8 22-171); assay: FACS titration of cynomolgus T cells
T4 construct: whole, on cells; also called Cyno T-cells; monkey T-cells

[7] = molecular target: T3, cynomolgus monkey CD3 expressed on …; assay: cell-based or functional assay

T3 sequence (Q95LI5 22-198, chain 1 of 2): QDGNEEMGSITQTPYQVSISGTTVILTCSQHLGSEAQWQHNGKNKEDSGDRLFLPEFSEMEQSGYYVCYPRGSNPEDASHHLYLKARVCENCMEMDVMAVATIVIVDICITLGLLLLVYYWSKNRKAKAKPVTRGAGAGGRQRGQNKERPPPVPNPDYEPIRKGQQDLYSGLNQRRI
T3 sequence (Q95LI8 22-171, chain 2 of 2): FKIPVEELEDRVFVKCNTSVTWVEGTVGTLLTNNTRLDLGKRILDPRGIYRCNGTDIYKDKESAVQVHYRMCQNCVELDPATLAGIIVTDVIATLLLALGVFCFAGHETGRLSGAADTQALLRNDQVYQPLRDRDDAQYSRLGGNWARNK
Sequence of human CD3 expressed on cells (Jurkat cells; human T-cells of PBMC) (chain, as listed by the source, chain 1 of 4): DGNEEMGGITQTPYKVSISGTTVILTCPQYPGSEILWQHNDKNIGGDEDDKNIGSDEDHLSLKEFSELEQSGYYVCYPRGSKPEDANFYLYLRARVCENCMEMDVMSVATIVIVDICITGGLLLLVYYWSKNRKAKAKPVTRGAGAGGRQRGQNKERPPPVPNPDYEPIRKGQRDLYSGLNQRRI
Sequence of human CD3 expressed on cells (Jurkat cells; human T-cells of PBMC) (chain, as listed by the source, chain 2 of 4): as the sequence (Q95LI8 22-171, chain 2 of 2) above, with V5I, K15N, V20I, T32S, N33D, N34I, A64T, N74S, L83V, R141H counted along it
Sequence of human CD3 expressed on cells (Jurkat cells; human T-cells of PBMC) (P09693 23-182, chain 3 of 4): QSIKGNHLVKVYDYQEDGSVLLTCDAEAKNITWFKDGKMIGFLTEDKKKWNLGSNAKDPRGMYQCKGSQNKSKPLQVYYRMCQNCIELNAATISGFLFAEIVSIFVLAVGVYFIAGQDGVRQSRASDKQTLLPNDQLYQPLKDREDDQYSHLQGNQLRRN
Sequence of human CD3 expressed on cells (Jurkat cells; human T-cells of PBMC) (P20963 22-164, chain 4 of 4): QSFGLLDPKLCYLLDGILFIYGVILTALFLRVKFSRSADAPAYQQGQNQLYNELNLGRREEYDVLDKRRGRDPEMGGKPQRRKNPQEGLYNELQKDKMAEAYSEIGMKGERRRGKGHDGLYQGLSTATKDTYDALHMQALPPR
T1 sequence (P07766 23-207 limits assumed, chain 1 of 2): as the sequence (chain, as listed by the source, chain 1 of 4) above
T1 sequence (P04234 22-171 limits assumed, chain 2 of 2): as the sequence (Q95LI8 22-171, chain 2 of 2) above, with V5I, K15N, V20I, T32S, N33D, N34I, A64T, N74S, L83V, R141H counted along it
T4 sequence (Q95LI5 22-198, form in doubt, chain 1 of 2): as the sequence (Q95LI5 22-198, chain 1 of 2) above
T4 sequence (Q95LI8 22-171, form in doubt, chain 2 of 2): as the sequence (Q95LI8 22-171, chain 2 of 2) above
T2 sequence (Q04609 whole entry): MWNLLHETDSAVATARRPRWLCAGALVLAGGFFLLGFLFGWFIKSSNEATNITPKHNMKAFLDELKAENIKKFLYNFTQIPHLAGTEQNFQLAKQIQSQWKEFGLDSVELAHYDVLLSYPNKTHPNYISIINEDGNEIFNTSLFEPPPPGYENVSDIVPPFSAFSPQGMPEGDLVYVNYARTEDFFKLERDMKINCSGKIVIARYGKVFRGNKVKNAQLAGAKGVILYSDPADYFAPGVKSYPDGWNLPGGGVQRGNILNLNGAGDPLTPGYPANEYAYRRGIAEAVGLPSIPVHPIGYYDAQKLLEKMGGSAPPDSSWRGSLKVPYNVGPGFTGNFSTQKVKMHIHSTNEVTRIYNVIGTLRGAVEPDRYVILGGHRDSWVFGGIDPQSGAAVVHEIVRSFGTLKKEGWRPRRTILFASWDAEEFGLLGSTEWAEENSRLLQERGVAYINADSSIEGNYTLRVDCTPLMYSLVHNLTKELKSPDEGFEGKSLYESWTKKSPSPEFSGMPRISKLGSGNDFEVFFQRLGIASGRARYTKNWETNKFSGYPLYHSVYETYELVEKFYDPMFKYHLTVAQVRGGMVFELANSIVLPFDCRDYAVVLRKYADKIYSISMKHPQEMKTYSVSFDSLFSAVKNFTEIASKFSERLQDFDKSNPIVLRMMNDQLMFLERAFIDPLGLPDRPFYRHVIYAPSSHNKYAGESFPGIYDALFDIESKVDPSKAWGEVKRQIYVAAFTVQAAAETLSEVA

EC50 [1]: 39.1 nM | EC50 [2]: 78.5 nM
B1: BSPSMA/CD3-001 (bispecific antibody, IgG4, V domains shown)
VH 1: QVQLVESGGGVVQPGRSLRLSCAASGFTFITYGMHWVRQAPGKGLEWVAIIYYDESNKYYADSVKGRFTISRDISKNTLYLQMNGLRAEDTAVYYCARAPRVAVEEDYSYYYGMDVWGQGTTVTVSS
VH 2: EVQLVESGGGLVQPGRSLRLSCVASGFTFADFTMHWVRQAPGKGLEWVSGISWNSNSIDYADSVKGRFTISRDNAKKSLFLQMSSLRAEDTALYYCVKDRSGYSRFYYGMDVWGQGTTVTVSS
VL: EIVMTQSPATLSVSPGERAILSCRASQNINSNLAWYQQKPGQAPRLLIYGASTRATGVPARFSGSGSGTEFTLTIRSLQSEDFAVYYCQQYYNWPITFGHGTRLEIK
notes: modified (chimeric) IgG4 Fc domain as in US20140243504A1; also called PSMA-VH-3465 x CD3-VH-A, CD3-VL-A

EC50 [4]: 2.29 nM | EC50 [M] mfPBMC Proliferation [7]: 2.72e-12 M
B5: H1H2712N (antibody, human IgG1, V domains shown)
VH: EVQLVESGGGLVQPGGSLRLSCAATGFTFDDFTMHWVRQAPGKGLEWVSGISWNSGSIGYVDSVKGRFTISRDNAKNSLYLQMNSLRAEDTALYYCAKDNSGYGYYYYGMDVWGQGTTVTVSS
VL: EIVMTQSPATLSVSPGERATLSCRASHSVSRNSAWYQQKPGQAPRLLIYGASTRATGIPARFSGSGSGTEFTLTISSLQSEDFAIYYCQQYNNWPLTFGGGTKVEIK
notes: H1H: human IgG1 Fc

The remaining lines, values behind:

B2: H2M3563N (antibody, mouse IgG2, V domains shown)
VH: EVHLVESGGGLVQPGRSLRLSCAASGFTFDDYTMHWVRQAPGKGLEWVSDISWNSGSIGYADSVKGRFTVSRDNAKNSLYLQMNSLRGEDTALYYCAKDMSGYGHYGKYGMDVWGQGTTVTVSS
VL: DIQMTQSPSSLSASVGDRVTITCRASQSIRSYLNWYQQKPGKVPKLLIYAASSLQSGVPSRFSGSGSGTDFTLTINSLQPDDFATYYCQQTYSNPPITFGQGTRLEIK
notes: H2M: human variable regions, mouse IgG2 Fc
U937 Cytotoxicity Human T-cells [3]: 40.5 pM | EC50 [4]: 0.165 nM

B3: H2M3547N (antibody, mouse IgG2, V domains shown)
VH: EAQLVESGGGLVQPGRSLRLSCTTSGFTFDDYTMHWVRQAPGKGLEWISDISWNGGTKGYADSVKGRFTISRDNAKNSLYLQMDSLRGEDTALYYCVKDKSGYGHFYFGLDVWGQGTTVTVSS
VL: DIQMTQSPSSLTASVGDRVTFTCRASQSISRHLSWYQQKPGKAPKLLIYAASSLESGVPSRFSGSGSGTDFTLTISSLHPEDFATYYCQQSYSNPPITFGQGTRLEIK
notes: as for B2
U937 Cytotoxicity Human T-cells [3]: 31.7 pM | EC50 [4]: 0.112 nM

B4: CD3-VH-P (antibody, V domains shown)
VH: EVQLVESGGGLVQPGRSLRLSCVASGFTFDDYSMHWVRQAPGKGLEWVSGISWNSGSKDYADSVKGRFTISRDNAKNSLYLQMNSLRAEDTALYYCAKYGSGYGKFYHYGLDVWGQGTTVTVSS
VL: DIQMTQSPSSLSASVGDSVTITCRASQSINNYLNWYQQKPGKAPKLLIYTASSLLSGVPSRFSGSGSGTDFTLTISGLHPEDFATYFCQQSFSTPPITFGQGTRLDIK
notes: also called CD3 antibody designated CD3-VH-P
EC50 [5]: 1 to 40 nM | EC50 [6]: 1 to 40 nM
